For 2 substances, Kd results are on record in article PMC12358912.

In one data set the target is NIPBL (human) (UniProt Q6KC79). Kind of data set: mass photometry. The conditions noted are these: typically 150 nM protein + 150 nM DNA, then diluted (10-fold for NIPBL), phosphate buffer (HEPES for MC604 repeat), 50 mM NaCl for ATP ….
Another data set has as its target NIPBL-MAU2 (human) (UniProt Q6KC79+Q9Y6X3). The data set can be described thus: mass photometry. The following applies: typically 150 nM protein + 150 nM DNA, then diluted (10-fold for NIPBL), phosphate buffer (HEPES for MC604 repeat), 50 mM NaCl for ATP ….
In a further data set the target is T1, STAG1 (human) (UniProt Q8WVM7).
T1 sequence: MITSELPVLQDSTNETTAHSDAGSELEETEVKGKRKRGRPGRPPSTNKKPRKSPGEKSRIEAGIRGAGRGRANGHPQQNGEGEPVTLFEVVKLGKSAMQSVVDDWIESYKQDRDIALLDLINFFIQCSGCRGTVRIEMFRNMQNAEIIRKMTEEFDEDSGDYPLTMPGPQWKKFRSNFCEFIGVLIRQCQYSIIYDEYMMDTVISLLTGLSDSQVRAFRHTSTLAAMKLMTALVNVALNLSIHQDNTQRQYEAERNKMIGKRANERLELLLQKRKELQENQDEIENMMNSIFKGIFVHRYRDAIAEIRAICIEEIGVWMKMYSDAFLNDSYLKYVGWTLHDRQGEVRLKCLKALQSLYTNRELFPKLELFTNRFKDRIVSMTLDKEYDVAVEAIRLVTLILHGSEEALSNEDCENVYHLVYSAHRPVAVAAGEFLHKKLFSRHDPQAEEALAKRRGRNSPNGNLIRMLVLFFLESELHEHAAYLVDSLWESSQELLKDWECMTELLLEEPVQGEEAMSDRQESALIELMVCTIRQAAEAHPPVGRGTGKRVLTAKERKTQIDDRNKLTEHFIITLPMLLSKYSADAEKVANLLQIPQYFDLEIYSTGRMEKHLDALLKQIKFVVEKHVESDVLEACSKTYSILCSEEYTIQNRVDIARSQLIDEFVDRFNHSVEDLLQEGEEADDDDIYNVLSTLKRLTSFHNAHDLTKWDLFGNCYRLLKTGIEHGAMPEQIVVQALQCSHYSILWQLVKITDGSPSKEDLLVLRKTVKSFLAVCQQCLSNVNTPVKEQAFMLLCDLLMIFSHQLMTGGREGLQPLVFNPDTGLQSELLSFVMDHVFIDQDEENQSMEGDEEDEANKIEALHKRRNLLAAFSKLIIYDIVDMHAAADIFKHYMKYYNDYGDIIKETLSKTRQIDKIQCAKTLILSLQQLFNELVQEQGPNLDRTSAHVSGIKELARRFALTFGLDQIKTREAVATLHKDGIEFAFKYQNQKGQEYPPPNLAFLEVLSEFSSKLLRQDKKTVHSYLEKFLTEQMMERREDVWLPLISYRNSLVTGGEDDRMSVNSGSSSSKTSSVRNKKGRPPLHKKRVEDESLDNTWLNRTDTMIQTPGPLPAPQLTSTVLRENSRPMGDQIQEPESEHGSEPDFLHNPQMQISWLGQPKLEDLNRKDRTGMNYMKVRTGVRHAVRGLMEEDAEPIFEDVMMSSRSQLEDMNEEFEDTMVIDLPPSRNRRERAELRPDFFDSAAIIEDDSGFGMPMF
Kind of data set: mass photometry. The conditions noted are these: typically 150 nM protein + 150 nM DNA, then diluted (10-fold for NIPBL), phosphate buffer (HEPES for MC604 repeat), 50 mM NaCl for ATP ….

In data set [1] the target is cohesin Trimer (SMC1/SMC3/SCC1);STAG1 (human;human) (UniProt Q14683+Q9UQE7+O60216+Q8WVM7). Kind of data set: mass photometry. The following applies: typically 150 nM protein + 150 nM DNA, then diluted (10-fold for NIPBL), phosphate buffer (HEPES for MC604 repeat), 50 mM NaCl for ATP ….
Sequence of cohesin Trimer (SMC1/SMC3/SCC1);STAG1 (human;human) (Q14683 whole entry, chain 1 of 3): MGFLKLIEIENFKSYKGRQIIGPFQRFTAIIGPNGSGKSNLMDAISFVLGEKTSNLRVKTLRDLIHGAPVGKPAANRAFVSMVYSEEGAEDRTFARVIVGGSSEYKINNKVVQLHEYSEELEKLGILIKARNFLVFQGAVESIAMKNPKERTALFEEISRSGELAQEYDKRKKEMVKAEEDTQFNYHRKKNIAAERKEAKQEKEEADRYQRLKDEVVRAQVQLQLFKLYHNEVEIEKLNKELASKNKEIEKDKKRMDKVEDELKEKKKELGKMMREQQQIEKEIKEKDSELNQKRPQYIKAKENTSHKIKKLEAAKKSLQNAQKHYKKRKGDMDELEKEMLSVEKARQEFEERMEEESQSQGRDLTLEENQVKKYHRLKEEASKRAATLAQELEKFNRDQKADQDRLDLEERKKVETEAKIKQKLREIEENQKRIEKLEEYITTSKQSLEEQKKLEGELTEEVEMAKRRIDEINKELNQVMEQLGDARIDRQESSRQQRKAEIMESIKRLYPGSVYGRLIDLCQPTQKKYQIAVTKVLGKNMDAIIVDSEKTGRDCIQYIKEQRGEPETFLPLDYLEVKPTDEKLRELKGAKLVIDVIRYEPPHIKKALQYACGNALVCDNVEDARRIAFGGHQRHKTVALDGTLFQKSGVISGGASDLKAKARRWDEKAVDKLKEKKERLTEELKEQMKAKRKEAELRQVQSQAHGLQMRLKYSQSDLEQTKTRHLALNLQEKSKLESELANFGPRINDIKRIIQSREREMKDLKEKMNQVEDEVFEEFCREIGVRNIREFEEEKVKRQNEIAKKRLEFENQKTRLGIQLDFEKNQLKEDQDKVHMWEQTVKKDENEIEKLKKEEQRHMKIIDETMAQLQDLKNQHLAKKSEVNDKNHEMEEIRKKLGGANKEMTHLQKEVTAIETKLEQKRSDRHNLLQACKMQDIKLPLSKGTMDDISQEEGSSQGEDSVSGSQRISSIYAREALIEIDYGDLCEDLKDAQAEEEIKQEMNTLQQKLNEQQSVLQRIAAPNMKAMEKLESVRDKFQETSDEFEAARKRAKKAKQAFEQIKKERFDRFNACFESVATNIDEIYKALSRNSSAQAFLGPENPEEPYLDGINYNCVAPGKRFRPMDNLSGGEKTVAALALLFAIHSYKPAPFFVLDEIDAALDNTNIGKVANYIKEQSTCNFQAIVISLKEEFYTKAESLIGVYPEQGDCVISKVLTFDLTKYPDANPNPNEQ
Sequence of cohesin Trimer (SMC1/SMC3/SCC1);STAG1 (human;human) (Q9UQE7 whole entry, chain 2 of 3): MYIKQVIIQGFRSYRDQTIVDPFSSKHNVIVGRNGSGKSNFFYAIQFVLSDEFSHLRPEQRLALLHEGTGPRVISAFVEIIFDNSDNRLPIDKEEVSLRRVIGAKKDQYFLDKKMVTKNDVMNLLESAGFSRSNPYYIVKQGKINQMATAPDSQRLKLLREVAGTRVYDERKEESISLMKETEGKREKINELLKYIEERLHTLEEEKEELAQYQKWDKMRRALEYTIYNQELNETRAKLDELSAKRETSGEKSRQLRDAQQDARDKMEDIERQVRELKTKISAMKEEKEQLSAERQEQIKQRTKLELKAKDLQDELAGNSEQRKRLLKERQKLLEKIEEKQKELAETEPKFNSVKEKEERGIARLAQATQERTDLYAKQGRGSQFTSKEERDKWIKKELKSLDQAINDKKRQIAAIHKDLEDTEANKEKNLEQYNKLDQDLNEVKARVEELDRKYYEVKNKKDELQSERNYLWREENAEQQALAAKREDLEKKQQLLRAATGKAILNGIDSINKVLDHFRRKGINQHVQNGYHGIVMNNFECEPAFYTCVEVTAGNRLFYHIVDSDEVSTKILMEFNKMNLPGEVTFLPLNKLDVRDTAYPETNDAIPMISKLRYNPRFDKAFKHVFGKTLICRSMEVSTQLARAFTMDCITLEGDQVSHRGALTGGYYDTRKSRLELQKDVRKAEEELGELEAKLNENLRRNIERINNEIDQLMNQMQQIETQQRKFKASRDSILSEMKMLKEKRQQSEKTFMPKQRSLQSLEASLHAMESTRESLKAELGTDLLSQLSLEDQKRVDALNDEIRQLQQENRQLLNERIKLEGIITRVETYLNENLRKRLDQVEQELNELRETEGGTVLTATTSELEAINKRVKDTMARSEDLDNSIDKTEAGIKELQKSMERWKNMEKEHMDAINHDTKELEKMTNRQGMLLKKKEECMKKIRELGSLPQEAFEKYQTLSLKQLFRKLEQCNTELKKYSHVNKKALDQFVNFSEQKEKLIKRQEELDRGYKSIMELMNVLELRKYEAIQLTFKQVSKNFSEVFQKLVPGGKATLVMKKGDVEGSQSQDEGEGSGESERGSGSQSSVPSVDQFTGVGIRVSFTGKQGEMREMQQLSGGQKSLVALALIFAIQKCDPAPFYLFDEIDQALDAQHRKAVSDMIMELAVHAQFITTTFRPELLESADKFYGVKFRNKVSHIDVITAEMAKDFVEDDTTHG
Sequence of cohesin Trimer (SMC1/SMC3/SCC1);STAG1 (human;human) (O60216 whole entry, chain 3 of 3): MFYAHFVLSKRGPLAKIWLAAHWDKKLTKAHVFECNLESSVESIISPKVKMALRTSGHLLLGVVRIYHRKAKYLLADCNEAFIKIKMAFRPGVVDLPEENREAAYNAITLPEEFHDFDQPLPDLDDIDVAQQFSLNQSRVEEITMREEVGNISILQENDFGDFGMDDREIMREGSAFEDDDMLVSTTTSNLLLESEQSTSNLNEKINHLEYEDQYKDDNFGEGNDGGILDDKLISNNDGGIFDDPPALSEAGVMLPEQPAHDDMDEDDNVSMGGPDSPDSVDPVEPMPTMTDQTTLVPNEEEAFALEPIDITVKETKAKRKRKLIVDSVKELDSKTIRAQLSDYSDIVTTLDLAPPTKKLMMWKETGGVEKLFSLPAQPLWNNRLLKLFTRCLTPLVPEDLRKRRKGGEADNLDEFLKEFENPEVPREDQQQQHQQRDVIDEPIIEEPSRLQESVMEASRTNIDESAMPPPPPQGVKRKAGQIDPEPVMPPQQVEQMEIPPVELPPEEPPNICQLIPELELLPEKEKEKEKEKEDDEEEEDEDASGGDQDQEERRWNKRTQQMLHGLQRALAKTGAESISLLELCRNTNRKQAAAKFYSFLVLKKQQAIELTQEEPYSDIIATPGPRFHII
The target of data set [2] is SMC1/SMC3/SCC1 cohesin Trimer (UniProt Q14683). The data set can be described thus: mass photometry; in solution; two components mixed and equilibrated: 150 nM cohesin Trimer sample with 150 nM NIPBL, or with 150 nM or 80 nM STAG1 (total protein concentrations); KD from individual mass distributions; ATP is said not to affect these 1:1 interactions.
Sequence of SMC1/SMC3/SCC1 cohesin Trimer (Q14683 whole entry, chain 1 of 3): as the sequence (Q14683 whole entry, chain 1 of 3) above
Sequence of SMC1/SMC3/SCC1 cohesin Trimer (chain, as listed by the source, chain 2 of 3): as the sequence (Q9UQE7 whole entry, chain 2 of 3) above
Sequence of SMC1/SMC3/SCC1 cohesin Trimer (chain, as listed by the source, chain 3 of 3): as the sequence (O60216 whole entry, chain 3 of 3) above

Turning to “CATATGTGCAGTCCCCCCATAAAAAAACCCGCCGAAGCGGGTTTTTACGTTATTTGCGGATTTTAATTAACTAGTTCTAGAGCTCACGTGCAGCTGTCGACGGTACCTGCAGGCCGGCCAGTACTGGGCCCCAACAGATAAAACGAAAGGCCCAGTCTTTCGACTGAGCCTTTCGTTTTATTGGGCCCCCTTGGTCAAATTGGGTATACCCATTTGGGCCTGGTCTGGCCGGCATGGCGCATTACAGCGGTACGCAATTTAAATGCGCCTAGCGCATTTTCCCGACCTTAATGCGCCTCGCG (double strand) [MC302 supercoiled minicircle]”, the Kd is below 10 nM with NIPBL (human), 12.2 nM with NIPBL-MAU2 (human), 1350 nM with STAG1 (human) and 169 nM in data set [1].
In turn, NIPBL, Q6KC79 1-2804 returned a dissociation constant Kd in data set [2] of 20 nM.
